# Results reported in US20160053277A1, “Compositions Having Dicamba Decarboxylase Activity and Methods of Use” (PIONEER HI-BRED INTERNATIONAL, INC., priority 2013, published 2016).
# B1: D299A: point mutant of SEQ ID NO: 109 (protein)
# chain: MAQGKVALEEHFAIPETLQDSAGFVPGDYWKELQHRLLDIQDTRLKLMDAHGIETMILSLNAPAVQAIPDRRKAIEIARRANDVLAEECAKRPDRFLAFAALPLQDPDAATEELQRCVNDLGFVGALVNGFSQEGDGQTPLYYDLPQYRPFWGEVEKLDVPFYLHPRNPLPQDSRIYDGHPWLLGPTWAFAQETAVHALRLMASGLFDEHPRLNIILGHMGEGLPYMMWRIDHRVAWVKLPPRYPAKRRFMDYFNENFHITTSGNFRTQTLIDAILEIGADRILFSTDWPFENIDHASAWFNATSIAEADRVKIGRTNARRLFKLDGA
# modifications: Dicamba decarboxylase variant clone: DC.4.032
# B2: R321N: point mutant of SEQ ID NO: 109 (protein)
# chain: MAQGKVALEEHFAIPETLQDSAGFVPGDYWKELQHRLLDIQDTRLKLMDAHGIETMILSLNAPAVQAIPDRRKAIEIARRANDVLAEECAKRPDRFLAFAALPLQDPDAATEELQRCVNDLGFVGALVNGFSQEGDGQTPLYYDLPQYRPFWGEVEKLDVPFYLHPRNPLPQDSRIYDGHPWLLGPTWAFAQETAVHALRLMASGLFDEHPRLNIILGHMGEGLPYMMWRIDHRVAWVKLPPRYPAKRRFMDYFNENFHITTSGNFRTQTLIDAILEIGADRILFSTDWPFENIDHASDWFNATSIAEADRVKIGRTNARNLFKLDGA
# modifications: Dicamba decarboxylase variant clone: DC.4.032
# B3: G327Q: point mutant of SEQ ID NO: 109 (protein)
# chain: MAQGKVALEEHFAIPETLQDSAGFVPGDYWKELQHRLLDIQDTRLKLMDAHGIETMILSLNAPAVQAIPDRRKAIEIARRANDVLAEECAKRPDRFLAFAALPLQDPDAATEELQRCVNDLGFVGALVNGFSQEGDGQTPLYYDLPQYRPFWGEVEKLDVPFYLHPRNPLPQDSRIYDGHPWLLGPTWAFAQETAVHALRLMASGLFDEHPRLNIILGHMGEGLPYMMWRIDHRVAWVKLPPRYPAKRRFMDYFNENFHITTSGNFRTQTLIDAILEIGADRILFSTDWPFENIDHASDWFNATSIAEADRVKIGRTNARRLFKLDQA
# modifications: Dicamba decarboxylase variant clone: DC.4.032
# B4: W30L: point mutant of SEQ ID NO: 109 (protein)
# chain: MAQGKVALEEHFAIPETLQDSAGFVPGDYLKELQHRLLDIQDTRLKLMDAHGIETMILSLNAPAVQAIPDRRKAIEIARRANDVLAEECAKRPDRFLAFAALPLQDPDAATEELQRCVNDLGFVGALVNGFSQEGDGQTPLYYDLPQYRPFWGEVEKLDVPFYLHPRNPLPQDSRIYDGHPWLLGPTWAFAQETAVHALRLMASGLFDEHPRLNIILGHMGEGLPYMMWRIDHRVAWVKLPPRYPAKRRFMDYFNENFHITTSGNFRTQTLIDAILEIGADRILFSTDWPFENIDHASDWFNATSIAEADRVKIGRTNARRLFKLDGA
# modifications: Dicamba decarboxylase variant clone: DC.4.032
# B5: A328D: point mutant of SEQ ID NO: 109 (protein)
# chain: MAQGKVALEEHFAIPETLQDSAGFVPGDYWKELQHRLLDIQDTRLKLMDAHGIETMILSLNAPAVQAIPDRRKAIEIARRANDVLAEECAKRPDRFLAFAALPLQDPDAATEELQRCVNDLGFVGALVNGFSQEGDGQTPLYYDLPQYRPFWGEVEKLDVPFYLHPRNPLPQDSRIYDGHPWLLGPTWAFAQETAVHALRLMASGLFDEHPRLNIILGHMGEGLPYMMWRIDHRVAWVKLPPRYPAKRRFMDYFNENFHITTSGNFRTQTLIDAILEIGADRILFSTDWPFENIDHASDWFNATSIAEADRVKIGRTNARRLFKLDGD
# modifications: Dicamba decarboxylase variant clone: DC.4.032
# B6: G27S: point mutant of SEQ ID NO: 109 (protein)
# chain: MAQGKVALEEHFAIPETLQDSAGFVPSDYWKELQHRLLDIQDTRLKLMDAHGIETMILSLNAPAVQAIPDRRKAIEIARRANDVLAEECAKRPDRFLAFAALPLQDPDAATEELQRCVNDLGFVGALVNGFSQEGDGQTPLYYDLPQYRPFWGEVEKLDVPFYLHPRNPLPQDSRIYDGHPWLLGPTWAFAQETAVHALRLMASGLFDEHPRLNIILGHMGEGLPYMMWRIDHRVAWVKLPPRYPAKRRFMDYFNENFHITTSGNFRTQTLIDAILEIGADRILFSTDWPFENIDHASDWFNATSIAEADRVKIGRTNARRLFKLDGA
# modifications: Dicamba decarboxylase variant clone: DC.4.032
# B7: A328R: point mutant of SEQ ID NO: 109 (protein)
# chain: MAQGKVALEEHFAIPETLQDSAGFVPGDYWKELQHRLLDIQDTRLKLMDAHGIETMILSLNAPAVQAIPDRRKAIEIARRANDVLAEECAKRPDRFLAFAALPLQDPDAATEELQRCVNDLGFVGALVNGFSQEGDGQTPLYYDLPQYRPFWGEVEKLDVPFYLHPRNPLPQDSRIYDGHPWLLGPTWAFAQETAVHALRLMASGLFDEHPRLNIILGHMGEGLPYMMWRIDHRVAWVKLPPRYPAKRRFMDYFNENFHITTSGNFRTQTLIDAILEIGADRILFSTDWPFENIDHASDWFNATSIAEADRVKIGRTNARRLFKLDGR
# modifications: Dicamba decarboxylase variant clone: DC.4.032
# B8: A303E: point mutant of SEQ ID NO: 109 (protein)
# chain: MAQGKVALEEHFAIPETLQDSAGFVPGDYWKELQHRLLDIQDTRLKLMDAHGIETMILSLNAPAVQAIPDRRKAIEIARRANDVLAEECAKRPDRFLAFAALPLQDPDAATEELQRCVNDLGFVGALVNGFSQEGDGQTPLYYDLPQYRPFWGEVEKLDVPFYLHPRNPLPQDSRIYDGHPWLLGPTWAFAQETAVHALRLMASGLFDEHPRLNIILGHMGEGLPYMMWRIDHRVAWVKLPPRYPAKRRFMDYFNENFHITTSGNFRTQTLIDAILEIGADRILFSTDWPFENIDHASDWFNETSIAEADRVKIGRTNARRLFKLDGA
# modifications: Dicamba decarboxylase variant clone: DC.4.032
# B9: D20F: point mutant of SEQ ID NO: 109 (protein)
# chain: MAQGKVALEEHFAIPETLQFSAGFVPGDYWKELQHRLLDIQDTRLKLMDAHGIETMILSLNAPAVQAIPDRRKAIEIARRANDVLAEECAKRPDRFLAFAALPLQDPDAATEELQRCVNDLGFVGALVNGFSQEGDGQTPLYYDLPQYRPFWGEVEKLDVPFYLHPRNPLPQDSRIYDGHPWLLGPTWAFAQETAVHALRLMASGLFDEHPRLNIILGHMGEGLPYMMWRIDHRVAWVKLPPRYPAKRRFMDYFNENFHITTSGNFRTQTLIDAILEIGADRILFSTDWPFENIDHASDWFNATSIAEADRVKIGRTNARRLFKLDGA
# modifications: Dicamba decarboxylase variant clone: DC.4.032
# B10: G27T: point mutant of SEQ ID NO: 109 (protein)
# chain: MAQGKVALEEHFAIPETLQDSAGFVPTDYWKELQHRLLDIQDTRLKLMDAHGIETMILSLNAPAVQAIPDRRKAIEIARRANDVLAEECAKRPDRFLAFAALPLQDPDAATEELQRCVNDLGFVGALVNGFSQEGDGQTPLYYDLPQYRPFWGEVEKLDVPFYLHPRNPLPQDSRIYDGHPWLLGPTWAFAQETAVHALRLMASGLFDEHPRLNIILGHMGEGLPYMMWRIDHRVAWVKLPPRYPAKRRFMDYFNENFHITTSGNFRTQTLIDAILEIGADRILFSTDWPFENIDHASDWFNATSIAEADRVKIGRTNARRLFKLDGA
# modifications: Dicamba decarboxylase variant clone: DC.4.032
# B11: N302A: point mutant of SEQ ID NO: 109 (protein)
# chain: MAQGKVALEEHFAIPETLQDSAGFVPGDYWKELQHRLLDIQDTRLKLMDAHGIETMILSLNAPAVQAIPDRRKAIEIARRANDVLAEECAKRPDRFLAFAALPLQDPDAATEELQRCVNDLGFVGALVNGFSQEGDGQTPLYYDLPQYRPFWGEVEKLDVPFYLHPRNPLPQDSRIYDGHPWLLGPTWAFAQETAVHALRLMASGLFDEHPRLNIILGHMGEGLPYMMWRIDHRVAWVKLPPRYPAKRRFMDYFNENFHITTSGNFRTQTLIDAILEIGADRILFSTDWPFENIDHASDWFAATSIAEADRVKIGRTNARRLFKLDGA
# modifications: Dicamba decarboxylase variant clone: DC.4.032
# B12: G27A: point mutant of SEQ ID NO: 109 (protein)
# chain: MAQGKVALEEHFAIPETLQDSAGFVPADYWKELQHRLLDIQDTRLKLMDAHGIETMILSLNAPAVQAIPDRRKAIEIARRANDVLAEECAKRPDRFLAFAALPLQDPDAATEELQRCVNDLGFVGALVNGFSQEGDGQTPLYYDLPQYRPFWGEVEKLDVPFYLHPRNPLPQDSRIYDGHPWLLGPTWAFAQETAVHALRLMASGLFDEHPRLNIILGHMGEGLPYMMWRIDHRVAWVKLPPRYPAKRRFMDYFNENFHITTSGNFRTQTLIDAILEIGADRILFSTDWPFENIDHASDWFNATSIAEADRVKIGRTNARRLFKLDGA
# modifications: Dicamba decarboxylase variant clone: DC.4.032
# Test: Saturation mutagenesis of SEQ ID NO:109: dicamba decarboxylation activity of point mutants (carbon dioxide released)
# [1] = dicamba decarboxylation activity of point mutants of SEQ ID NO: 109, relative to unchanged template
# [2] = point mutation in SEQ ID NO: 109
Molecule,Average Activity (Fold of SEQ ID NO: 109) [1],Average Activity (Fold of SEQ ID NO: 109) [2]
B1,2.0 Fold of SEQ ID NO: 109,
B2,1.7 Fold of SEQ ID NO: 109,1.7 Fold of SEQ ID NO: 109
B3,2.8 Fold of SEQ ID NO: 109,2.8 Fold of SEQ ID NO: 109
B4,1.7 Fold of SEQ ID NO: 109,1.7 Fold of SEQ ID NO: 109
B5,2.3 Fold of SEQ ID NO: 109,2.3 Fold of SEQ ID NO: 109
B6,2.2 Fold of SEQ ID NO: 109,2.2 Fold of SEQ ID NO: 109
B7,3.0 Fold of SEQ ID NO: 109,
B8,2.3 Fold of SEQ ID NO: 109,
B9,1.9 Fold of SEQ ID NO: 109,1.9 Fold of SEQ ID NO: 109
B10,2.0 Fold of SEQ ID NO: 109,
B11,1.9 Fold of SEQ ID NO: 109,1.9 Fold of SEQ ID NO: 109
B12,2.0 Fold of SEQ ID NO: 109,
